The target in assay [1] is H1N1 representative viral strain (hemagglutinin), Example 6. The assay is described as follows: cell-based or functional assay.
Assay [2] concerns the target H3N2 representative viral strain (hemagglutinin), Example 6. Nature of the assay: cell-based or functional assay.

B1: FluAB_MLNS (antibody)
heavy: not shown
light: DIQMTQSPSSLSASVGDRVTITCRTSQSLSSYTHWYQQKPGKAPKLLIYAASSRGSGVPSRFSGSGSGTDFTLTISSLQPEDFATYYCQQSRTFGQGTKVEIKRTVAAPSVFIFPPSDEQLKSGTASVVCLLNNFYPREAKVQWKVDNALQSGNSQESVTEQDSKDSTYSLSSTLTLSKADYEKHKVYACEVTHQGLSSPVTKSFNRGEC
Consider B1, for which the entries for the “IC50 of in vitro neutralization (MDCK cells, neuraminidase activity read-out)” value in assay [1] and in assay [2] were 0.0156 µM and 0.0179 µM, respectively.

For the origin of these results see patent US20220306728A1 (VIR BIOTECHNOLOGY, published 2022).
